{"source": "patent US20070169210A1", "about": "(EMORY UNIVERSITY, published 2007)", "key": {"[1]": {"target": "SED1, endogenous, of mouse sperm and male reproductive tract (mouse) (UniProt P21956)", "assay": "cell-based or functional assay"}, "[2]": {"target": "zona pellucida of unfertilized (ovulated) oocytes", "assay": "cell-based or functional assay"}, "[3]": {"target": "T1, ZP1 zona pellucida glycoprotein (murine, UniProt Q62005 21-546)", "T1 construct": "Native glycoprotein on a blot, non-reducing conditions", "T1 sequence (looked up)": "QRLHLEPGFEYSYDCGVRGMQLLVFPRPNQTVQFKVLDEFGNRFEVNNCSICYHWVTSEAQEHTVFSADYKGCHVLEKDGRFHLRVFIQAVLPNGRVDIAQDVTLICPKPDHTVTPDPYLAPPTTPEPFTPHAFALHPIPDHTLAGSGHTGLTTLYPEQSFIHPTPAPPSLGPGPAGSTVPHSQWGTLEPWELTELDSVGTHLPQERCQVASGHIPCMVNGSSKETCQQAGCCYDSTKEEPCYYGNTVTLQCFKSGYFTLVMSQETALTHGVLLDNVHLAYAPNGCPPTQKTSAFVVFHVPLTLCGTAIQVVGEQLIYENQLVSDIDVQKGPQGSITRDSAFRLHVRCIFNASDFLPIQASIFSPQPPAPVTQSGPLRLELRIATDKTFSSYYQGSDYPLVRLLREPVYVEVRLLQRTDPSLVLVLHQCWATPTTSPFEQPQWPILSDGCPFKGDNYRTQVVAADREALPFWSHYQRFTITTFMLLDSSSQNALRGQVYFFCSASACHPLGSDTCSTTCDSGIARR", "assay": "blot overlay of zona glycoproteins resolved under nonreducing conditions, biotinylated (His)6-SED1, streptavidin-HRP", "experimental": "(§1) The purification of zona pellucida glycoproteins was done as published elsewhere (Miller et al., 1992). The proteins were resolved on 10% polyacrylamide gels and transferred onto Immobilon-P membranes (Millipore) as above. The membranes were blocked in TBST containing 2% BSA for 1 hr at 25° C. Subsequently, membranes were incubated with either (His)₆-SED1, biotinylated (His)₆-SED1, SED1 prepared from COS-7 cells, or biotinylated WGA-lectin (positive control) for 1 hr at 25° C. and washed three times for 10 min in TBST, followed by incubation with either rabbit anti-SED1 and goat anti-rabbit-HRP, or Streptavidin-HRP (Zymed). The membranes were washed, developed, and exposed to film as above."}, "[4]": {"target": "T2, SED1 expressed in COS-7 cells (SED1-COS), on secreted membrane vesicles (mouse, UniProt P21956 23-463)", "T2 construct": "Cloned into pcDNA3.1 D/V5-His-Topo; Used as SED1-enriched membrane vesicles released by COS-7 cells; also called COS-expressed SED1", "T2 sequence": "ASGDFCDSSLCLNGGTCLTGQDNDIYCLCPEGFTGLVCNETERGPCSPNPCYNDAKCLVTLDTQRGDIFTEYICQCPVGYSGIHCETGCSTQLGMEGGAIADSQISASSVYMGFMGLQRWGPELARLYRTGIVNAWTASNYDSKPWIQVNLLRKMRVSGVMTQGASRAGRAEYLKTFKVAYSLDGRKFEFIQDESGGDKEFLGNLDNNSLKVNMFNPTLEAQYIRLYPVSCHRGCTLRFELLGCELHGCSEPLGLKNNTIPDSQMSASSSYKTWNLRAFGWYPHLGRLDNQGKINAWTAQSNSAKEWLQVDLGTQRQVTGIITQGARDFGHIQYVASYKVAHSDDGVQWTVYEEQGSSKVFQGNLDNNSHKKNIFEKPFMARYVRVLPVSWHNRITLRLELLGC", "assay": "blot overlay, zona glycoproteins resolved under reducing conditions, detected with anti-SED1", "experimental": "as §1\nTo determine which of the three zona glycoproteins could serve as the putative ligand for SED1, […]. When zona glycoproteins were resolved under reducing conditions, SED1 bound to glycoproteins comigrating as ZP1/ZP2 as well as ZP3 (FIG. 3D). Similar results were achieved using either biotinylated (His)₆-SED1 (D-SED1) detected by Streptavidin-HRP/ECL or recombinant (His)₆-SED1 (rSED1) detected by rabbit-anti-SED1 IgG and HRP-conjugated secondary antibodies (FIG. 3D). […]"}}, "data": [{"molecule": "preimmune rabbit serum / preimmune IgG (antibody)", "values": [{"measurement": "binding of GalT I null sperm to the zona, % of control (% of control binding at 200 µg/ml)", "setting": "[1]", "result": 91}]}, {"molecule": "(His)6-SED1 truncated fusion protein EEC (both EGF repeats, one discoidin/C domain)", "values": [{"measurement": "binding of GalT I null sperm to the zona, % of control (% of control at 3.8 µg/ml)", "setting": "[2]", "result": 21}]}, {"molecule": "(His)6-SED1 fusion protein (full-length recombinant mouse SED1 expressed in E. coli) (other, biotinylated with Sulfo-NHS-LC-LC-Biotin in the bead assays and in the streptavidin-detected blot overlays, also called rSED1; recombinant SED1) HHHHHHASGDFCDSSLCLNGGTCLTGQDNDIYCLCPEGFTGLVCNETERGPCSPNPCYNDAKCLVTLDTQRGDIFTEYICQCPVGYSGIHCETGCSTQLGMEGGAIADSQISASSVYMGFMGLQRWGPELARLYRTGIVNAWTASNYDSKPWIQVNLLRKMRVSGVMTQGASRAGRAEYLKTFKVAYSLDGRKFEFIQDESGGDKEFLGNLDNNSLKVNMFNPTLEAQYIRLYPVSCHRGCTLRFELLGCELHGCSEPLGLKNNTIPDSQMSASSSYKTWNLRAFGWYPHLGRLDNQGKINAWTAQSNSAKEWLQVDLGTQRQVTGIITQGARDFGHIQYVASYKVAHSDDGVQWTVYEEQGSSKVFQGNLDNNSHKKNIFEKPFMARYVRVLPVSWHNRITLRLELLGC", "values": [{"measurement": "binding of GalT I null sperm to the zona, % of control (% of control at 6 µg/ml)", "setting": "[2]", "result": 27}, {"measurement": "binding result", "setting": "[3]", "result": "no binding"}]}, {"molecule": "SED1, endogenous, of mouse sperm and male reproductive tract (protein) ASGDFCDSSLCLNGGTCLTGQDNDIYCLCPEGFTGLVCNETERGPCSPNPCYNDAKCLVTLDTQRGDIFTEYICQCPVGYSGIHCETGCSTQLGMEGGAIADSQISASSVYMGFMGLQRWGPELARLYRTGIVNAWTASNYDSKPWIQVNLLRKMRVSGVMTQGASRAGRAEYLKTFKVAYSLDGRKFEFIQDESGGDKEFLGNLDNNSLKVNMFNPTLEAQYIRLYPVSCHRGCTLRFELLGCELHGCSEPLGLKNNTIPDSQMSASSSYKTWNLRAFGWYPHLGRLDNQGKINAWTAQSNSAKEWLQVDLGTQRQVTGIITQGARDFGHIQYVASYKVAHSDDGVQWTVYEEQGSSKVFQGNLDNNSHKKNIFEKPFMARYVRVLPVSWHNRITLRLELLGC", "values": [{"measurement": "sperm bound per egg, SED1 null sperm", "setting": "[2]", "result": 1.45, "unit": "sperm/egg"}, {"measurement": "sperm bound per egg, wild-type sperm", "setting": "[2]", "result": 11.2, "unit": "sperm/egg"}]}, {"molecule": "ZP3 zona pellucida glycoprotein (other, murine, UniProt P10761 23-351, looked up, Native glycoprotein on a blot, reducing and non-reducing conditions) QTLWLLPGGTPTPVGSSSPVKVECLEAELVVTVSRDLFGTGKLVQPGDLTLGSEGCQPRVSVDTDVVRFNAQLHECSSRVQMTKDALVYSTFLLHDPRPVSGLSILRTNRVEVPIECRYPRQGNVSSHPIQPTWVPFRATVSSEEKLAFSLRLMEENWNTEKSAPTFHLGEVAHLQAEVQTGSHLPLQLFVDHCVATPSPLPDPNSSPYHFIVDFHGCLVDGLSESFSAFQVPRPRPETLQFTVDVFHFANSSRNTLYITCHLKVAPANQIPDKLNKACSFNKTSQSWLPVEGDADICDCCSHGNCSNSSSSQFQIHGPRQWSKLVSRN", "values": [{"measurement": "binding result", "setting": "[4]", "result": "binds"}]}]}
